Target: TF-mCCP1 (maize (inbred line B73))
Sequence (Q10716 137-371): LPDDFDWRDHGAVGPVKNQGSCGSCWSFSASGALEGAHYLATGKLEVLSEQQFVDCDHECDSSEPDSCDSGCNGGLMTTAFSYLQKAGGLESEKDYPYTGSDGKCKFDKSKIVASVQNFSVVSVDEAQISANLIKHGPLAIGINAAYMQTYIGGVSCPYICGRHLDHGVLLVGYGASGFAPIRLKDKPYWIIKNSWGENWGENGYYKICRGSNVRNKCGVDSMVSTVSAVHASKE

GST-NIa-Pro (enzyme)
proteolytic activity of recombinant mCCP1 (TF tag removed) on a fluorescein-labeled casein substrate after pre-treatment with 0.5 μM GST-NIa-Pro, against GST: 72 % decrease

From article PMC10965072
